The supplement of paper PMC10567573

B1: SAT2 (parent)
chain: IIKKVAEVALDKGCSQFRLAVLDW
B2: CPN1 (parent)
chain: RGVRRTASTPTPDDKLFQKLAKVY

Variants of: B1
Assay: protein stability index of a GFP-peptide fusion (GPS, HEK-293T) (PSI 1-6); higher = more stable
Settings: c terminus: a fixed tail appended
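Note: lentivirally expressed fusions sorted by FACS into six bins by GFP to DsRed ratio, PSI derived from sequencing read proportions per bin multiplied by bin number.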

Protein stability index: each site, then its substitutions
L19: A 1.61 | N 2.69 | V 3.77 | H 3.62 | Y 2.61 | R 2.5
K4: Y 2.95 | W 3.9 | P 1.31 | Q 2.45 | E 3.05 | G 1.54
V8: Q 2.94 | E 1.2 | H 2.58 | W 2.76 | C 1.99 | N 2.01 | M 2.59 | K 1.6 | P 1.7
G13: C 2.45 | D 2.79 | I 2.37
L10: D 1.75 | M 4.14 | T 3.02 | H 1.99 | N 1.17 | S 1.05 | C 3.52
D23: F 1.82 | C 3.04 | H 3.77 | M 2.98 | V 2.16 | Y 2.22 | I 3.25
E7: M 1.78 | I 1.52 | T 2.79 | L 2.75 | N 2.35 | P 2.75 | Y 2.64
V5: F 3.49 | D 1.52 | Y 1.04 | N 3.44 | A 3.31 | G 3.27
C14: S 2.97 | D 2.61 | N 4.56 | Y 2.62
K12: C 3.59 | G 3.51 | M 2.73 | W 4.21
A6: E 2.19 | Q 1.15 | N 2.71
L22: K 2 | P 2.5 | D 1.23 | W 4.19 | T 3.66 | F 1.86
F17: M 4.35 | D 3.24 | K 2.69 | P 3.25 | S 1.03 | T 3.18
S15: Q 1.56 | Y 3.27 | W 1.79 | L 3.77 | D 2.74
K3: R 2.37 | P 1.86
R18: P 2.17 | S 3.36 | L 2.39 | M 1.8 | Y 3.6
W24: N 2.22 | R 1.28 | E 2.23 | T 2.24 | D 1.37 | H 1.04 | S 3.1 | M 2.37 | P 1.65
A9: N 2.8 | F 2.31 | M 2.39 | I 2.87
I1: H 2.14 | D 2.44 | N 1.38 | K 2.02 | Q 2.23 | C 2.94 | T 1.86 | S 2.28
A20: T 2.13 | P 2.01
Q16: W 1.51 | E 3.74 | F 4.68
V21: W 3.21 | N 1.51 | L 4.52 | T 1.78 | G 3.79 | Q 1.04 | H 2.52 | K 1.87
D11: L 1.19 | F 3.5 | P 4.36 | Y 2.01 | Q 2.15
I2: D 1.74 | M 1.32 | F 3.61 | W 1.81 | H 1.33 | P 1.03 | G 1.48 | N 2.16 | K 2.16 | S 1.98

Variants of: B2
Assay: as above
Settings: c terminus: a fixed tail appended

Protein stability index of substitutions, site by site:
P10: E 2.81 | S 2.09 | L 1.02 | H 1.34 | V 1.79 | I 1.48 | A 2.13 | R 1.74 | T 1.75 | W 1.36 | C 2.07 | Q 1.78 | D 2.49 | K 1.8 | G 2.27 | M 1.89 | Y 1.79 | F 2.19 | N 2.06
R4: S 2.76 | I 2.56 | H 2.17 | N 1.95 | Y 1.54 | M 2.26 | W 2.02 | L 1.92 | Q 1.76 | V 2.35 | E 2.16 | K 1.51 | G 2.57
